Target: T1, insoluble type I collagen fibers (UniProt P02453 162-1217; P02465 80-1117)
T1 construct: type I collagen, alpha-1(I) chain; type I collagen, alpha-2(I) chain; Triple-helical, insoluble fibres; also called insoluble collagen fibers; native collagen; source: bought: Sigma‐Aldrich
Assay: collagen-binding assay with Scatchard analysis; 2.5 mg insoluble type I collagen fibers in 50 μL binding buffer (50 mM Tris/HCl, 0.2 M NaCl, 5 mM CaCl2, pH 7.5) with 0.1–2.0 mg/mL C‐terminal segment and 0.05 mg/mL BSA; unbound protein in the filtrate by SDS/PAGE densitometry; triplicate; least‐squares fit
Details: both partners purified

T1 sequence (P02453 162-1217, chain 1 of 2): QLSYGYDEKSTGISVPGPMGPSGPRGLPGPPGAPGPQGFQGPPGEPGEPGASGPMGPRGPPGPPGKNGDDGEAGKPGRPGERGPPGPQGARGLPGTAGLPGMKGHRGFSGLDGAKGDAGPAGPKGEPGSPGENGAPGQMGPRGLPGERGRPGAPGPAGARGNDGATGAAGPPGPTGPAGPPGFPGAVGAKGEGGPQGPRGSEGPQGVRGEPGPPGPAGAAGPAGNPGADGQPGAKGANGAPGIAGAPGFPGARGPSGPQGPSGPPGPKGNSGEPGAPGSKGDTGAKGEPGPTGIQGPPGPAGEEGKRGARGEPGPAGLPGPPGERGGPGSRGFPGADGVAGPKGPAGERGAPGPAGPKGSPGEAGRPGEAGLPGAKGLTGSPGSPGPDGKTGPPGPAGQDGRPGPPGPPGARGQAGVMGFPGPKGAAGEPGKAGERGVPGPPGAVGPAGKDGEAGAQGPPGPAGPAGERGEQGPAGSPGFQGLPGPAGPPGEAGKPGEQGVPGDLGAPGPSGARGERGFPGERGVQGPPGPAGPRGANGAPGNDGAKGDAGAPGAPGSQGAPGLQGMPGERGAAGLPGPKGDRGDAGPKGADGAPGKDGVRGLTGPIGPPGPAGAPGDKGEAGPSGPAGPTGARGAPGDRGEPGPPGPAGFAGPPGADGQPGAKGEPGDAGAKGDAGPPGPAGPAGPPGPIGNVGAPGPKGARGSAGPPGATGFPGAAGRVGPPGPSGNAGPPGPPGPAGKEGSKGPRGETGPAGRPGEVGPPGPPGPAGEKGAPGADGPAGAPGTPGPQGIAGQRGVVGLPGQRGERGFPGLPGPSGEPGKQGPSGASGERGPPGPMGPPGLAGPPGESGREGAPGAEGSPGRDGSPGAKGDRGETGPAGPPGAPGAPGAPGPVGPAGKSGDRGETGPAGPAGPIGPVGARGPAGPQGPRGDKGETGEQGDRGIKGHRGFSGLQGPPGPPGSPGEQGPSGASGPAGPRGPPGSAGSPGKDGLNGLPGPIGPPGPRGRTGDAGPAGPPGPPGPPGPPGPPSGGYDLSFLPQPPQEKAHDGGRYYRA
T1 sequence (P02465 80-1117, chain 2 of 2): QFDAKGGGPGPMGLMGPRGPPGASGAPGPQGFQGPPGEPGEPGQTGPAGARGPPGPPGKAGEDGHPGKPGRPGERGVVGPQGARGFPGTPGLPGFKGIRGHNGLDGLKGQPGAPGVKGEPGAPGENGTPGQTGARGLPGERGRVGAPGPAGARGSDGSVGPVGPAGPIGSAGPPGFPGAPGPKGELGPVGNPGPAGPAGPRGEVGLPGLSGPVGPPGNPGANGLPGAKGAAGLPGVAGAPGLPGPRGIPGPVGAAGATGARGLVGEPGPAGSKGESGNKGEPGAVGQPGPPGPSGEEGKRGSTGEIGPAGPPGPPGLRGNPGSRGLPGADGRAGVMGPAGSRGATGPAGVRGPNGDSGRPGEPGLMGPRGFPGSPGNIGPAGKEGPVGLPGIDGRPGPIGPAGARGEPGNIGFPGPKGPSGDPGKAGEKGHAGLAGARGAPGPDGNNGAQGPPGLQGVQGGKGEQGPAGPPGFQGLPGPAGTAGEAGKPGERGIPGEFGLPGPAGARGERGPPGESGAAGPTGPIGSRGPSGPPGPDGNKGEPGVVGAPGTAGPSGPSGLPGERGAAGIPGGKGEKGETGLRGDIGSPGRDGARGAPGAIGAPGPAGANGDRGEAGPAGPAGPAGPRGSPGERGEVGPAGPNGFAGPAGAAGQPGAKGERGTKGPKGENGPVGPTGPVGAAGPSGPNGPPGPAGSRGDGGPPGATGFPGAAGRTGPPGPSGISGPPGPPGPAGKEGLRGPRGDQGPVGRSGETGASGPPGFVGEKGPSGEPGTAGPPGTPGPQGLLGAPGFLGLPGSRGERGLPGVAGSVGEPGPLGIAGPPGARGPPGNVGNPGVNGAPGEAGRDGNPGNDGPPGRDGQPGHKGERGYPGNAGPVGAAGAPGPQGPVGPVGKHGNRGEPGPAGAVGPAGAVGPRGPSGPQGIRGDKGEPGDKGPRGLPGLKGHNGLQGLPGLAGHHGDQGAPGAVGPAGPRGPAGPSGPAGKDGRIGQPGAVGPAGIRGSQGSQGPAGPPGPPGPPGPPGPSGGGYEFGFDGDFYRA

B1: recombinant C‐terminal segment (aa 616–767) including the PPC domain of Grimontia hollisae strain 1706B collagenase (domain or fragment)
chain: TEALAKGDSGAGNGEGTGSGNEGGGESGGNTGLPENCAVLPKISDGRLALDEAACLADTASASDVLWFSIPAVSEYQTIAITAGNGTGDLTLEYSNLNWPDGTNVQASSANMGNSECIILEHQANYWGYLKVSGSFENAALLVEAGSNQCRQ
notes: 15.4 kDa; The forward primer carries the enterokinase site (DDDDK) just before residue T616, so the cleaved His-tag was probably N-terminal (surmised); QTOF-MS mass 15 445.01 Da fits two intrachain disulfide bonds; also called G. hollisae
  Kd: 27.2 µM
